Here are results for 16 substances from patent publication US20120294879A1, “CONSENSUS SEQUENCE FOR INFLUENZA A VIRUS” (priority 2009, published 2012).

The first assay deals with HLA-B7 (B*0702), chimeric heavy chain with HLA-B*0702 α1 and α2 domains and H-2Kd murine α3 domain, (human; mouse), B*07:0. In words: cell-based or functional assay.
On to “PB2 500-516 peptide of influenza virus A/New York/348/2003 (H1N1)”, for which the IFN-γ ELISpot at 10 µg/ml peptide, splenocytes of immunized HLA transgenic mice worked out at 184 and the lowest concentration of peptide giving positive ELISpot response was 0.1 µg/mL.
“PB1 328-344 peptide of influenza virus A/New York/348/2003 (H1N1)” showed an IFN-γ ELISpot at 10 µg/ml peptide, splenocytes of immunized HLA transgenic mice of 60 and a lowest concentration of peptide giving positive ELISpot response of 10 µg/mL.

A further assay has as its target HLA-DR2 (DRB1*1501), chimeric DRA1*0101:I-Eα and DRB1*1501:I-Eβ, as expressed in HLA-DR2 transgenic mice (human; mouse) (UniProt Q8BHN5). In words: cell-based or functional assay.
Chain of UniProt Q8BHN5 (Q8BHN5 whole entry, change not shown): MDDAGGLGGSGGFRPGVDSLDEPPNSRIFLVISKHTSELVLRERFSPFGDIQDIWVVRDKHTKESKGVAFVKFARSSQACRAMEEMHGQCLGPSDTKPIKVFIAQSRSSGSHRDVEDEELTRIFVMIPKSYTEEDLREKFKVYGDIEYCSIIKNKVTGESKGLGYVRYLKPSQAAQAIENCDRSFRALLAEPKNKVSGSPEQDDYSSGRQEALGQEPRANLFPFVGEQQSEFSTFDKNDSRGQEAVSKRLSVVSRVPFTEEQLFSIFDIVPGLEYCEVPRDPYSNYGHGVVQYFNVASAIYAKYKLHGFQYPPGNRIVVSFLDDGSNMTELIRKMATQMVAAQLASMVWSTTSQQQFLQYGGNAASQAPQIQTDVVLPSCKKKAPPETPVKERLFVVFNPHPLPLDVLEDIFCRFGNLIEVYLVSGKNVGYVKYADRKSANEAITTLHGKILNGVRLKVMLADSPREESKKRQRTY
“PB1 465-481 peptide of influenza virus A/New York/348/2003 (H1N1)” showed an IFN-γ ELISpot at 10 µg/ml peptide, splenocytes of immunized HLA transgenic mice of 231 and a lowest concentration of peptide giving positive ELISpot response of 1 µg/mL.
Take “M1 169-185 peptide of influenza virus A/New York/348/2003 (H1N1)”: the IFN-γ ELISpot at 10 µg/ml peptide, splenocytes of immunized HLA transgenic mice was 56 and the lowest concentration of peptide giving positive ELISpot response was 0.1 µg/mL.
In the case of “PB1 519-535 peptide of influenza virus A/New York/348/2003 (H1N1)”, the IFN-γ ELISpot at 10 µg/ml peptide, splenocytes of immunized HLA transgenic mice stood at 75 and the lowest concentration of peptide giving positive ELISpot response is 0.1 µg/mL.
The like results for “PB1 525-541 peptide of influenza virus A/New York/348/2003 (H1N1)” were, in that order, 159 and 0.1 µg/mL.
The like results for “PB1 352-368 peptide of influenza virus A/New York/348/2003 (H1N1)” were, in that order, 52 and 1 µg/mL.
“PB1 560-576 peptide of influenza virus A/New York/348/2003 (H1N1)” returned an IFN-γ ELISpot at 10 µg/ml peptide, splenocytes of immunized HLA transgenic mice of 194 and a lowest concentration of peptide giving positive ELISpot response of 0.1 µg/mL.
On the same counts, the results for “NP 402-418 peptide of influenza virus A/New York/348/2003 (H1N1)” are 207 and 0.1 µg/mL.
Substance “PB1 358-374 peptide of influenza virus A/New York/348/2003 (H1N1)” gave an IFN-γ ELISpot at 10 µg/ml peptide, splenocytes of immunized HLA transgenic mice of 84 and a lowest concentration of peptide giving positive ELISpot response of 0.1 µg/mL.
With “NP 133-149 peptide of influenza virus A/New York/348/2003 (H1N1)”, the IFN-γ ELISpot at 10 µg/ml peptide, splenocytes of immunized HLA transgenic mice came out at 238 and the lowest concentration of peptide giving positive ELISpot response stood at 0.1 µg/mL.
For the substance “PB1 554-570 peptide of influenza virus A/New York/348/2003 (H1N1)”, the IFN-γ ELISpot at 10 µg/ml peptide, splenocytes of immunized HLA transgenic mice was 109 and the lowest concentration of peptide giving positive ELISpot response came to 1 µg/mL.
For the substance “PB2 548-564 peptide of influenza virus A/New York/348/2003 (H1N1)”, the IFN-γ ELISpot at 10 µg/ml peptide, splenocytes of immunized HLA transgenic mice amounted to 96.
“PB2 630-646 peptide of influenza virus A/New York/348/2003 (H1N1)” yielded an IFN-γ ELISpot at 10 µg/ml peptide, splenocytes of immunized HLA transgenic mice of 104 and a lowest concentration of peptide giving positive ELISpot response of 0.1 µg/mL.
The substance “PB2 524-540 peptide of influenza virus A/New York/348/2003 (H1N1)” displayed an IFN-γ ELISpot at 10 µg/ml peptide, splenocytes of immunized HLA transgenic mice of 151 and a lowest concentration of peptide giving positive ELISpot response of 0.1 µg/mL.
On the same counts, the results for “NP 408-424 peptide of influenza virus A/New York/348/2003 (H1N1)” are 110 and 1 µg/mL.
